From patent publication US20260242478A1 (published 2026)
Where no end group is shown, it is not given here.

B1: Phage-265 (peptide)
peptide: MDWCPRFMWDLCFA
modifications: cysteine pairing not given here; also: displayed on phage as pIII fusion, fusion limits and linker not given here
notes: Clonal phage of the Peptide-9 library, tested as crude phage supernatant; not shown: pIII of the bacteriophage
B2: Phage-278 (peptide)
peptide: MDWCPRSIWYLCFN
modifications: cysteine pairing not given here; also: displayed on phage as fusion to pIII, fusion limits and linker not given here
notes: as for B1

target: T1, anti-CD28 scFv (VH - linker 1 - VL) (biotinylated (site not stated)); assay: phage ELISA; biotinylated anti-CD28 scFv on neutravidin plate, clonal phage supernatant, anti-M13 HRP detection;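 also: before phage addition, wells were pre-incubated with blocking buffer plus soluble CD28 protein, or blocking buffer only, with no wash in between, signal reflects phage remaining bound after washing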
T1 sequence (scFv, as listed by the source): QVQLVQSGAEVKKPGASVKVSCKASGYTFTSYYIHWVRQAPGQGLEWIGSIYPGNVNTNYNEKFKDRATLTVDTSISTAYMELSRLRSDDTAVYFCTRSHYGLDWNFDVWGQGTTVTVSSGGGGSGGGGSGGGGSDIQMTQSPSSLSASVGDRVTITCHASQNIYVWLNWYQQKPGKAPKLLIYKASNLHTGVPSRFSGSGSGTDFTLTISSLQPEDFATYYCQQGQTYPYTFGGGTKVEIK

Going from QDWCPTYLWHHCFN [Phage-186] to VDWCPRYLWHVCYN [Phage-189], the “CD28 scFv signal” value falls from 0.123 to 0.065.

First: MDWCPRYMWYQCFS [Phage-196]
Second: MDWCPSDMWHECYA [Phage-194]
The “CD28 scFv signal” value of the first is lower: 2.36 for the first, 2.47 for the second.

First: MDWCPRDMWAECFF [Phage-190]
Second: IDWCPRDLWALCFN [Phage-183]
The “CD28 scFv signal” value of the first is higher: 2.69 for the first, 0.37 for the second.

Going from MYWCPRDLWDVCFN [Phage-181] to MDWCPSYLWDQCFF [Phage-188], the “CD28 scFv signal” value falls from 0.512 to 0.083.

Going from MDWCPKHMWFMCFN [Phage-195] to IGKLTLCLNADLVI [Phage-187], the “CD28 scFv signal” value falls from 2.4 to 0.116.

First: MHWCPINLWNECFS [Phage-184]
Second: MDWCPRDMWYECFN [Phage-191]
The “CD28 scFv signal” value of the first is lower: 0.316 for the first, 2.56 for the second.

First: DVWCPKYMWSLCFN [Phage-192]
Second: MDWCPMDMWVNCFN [Phage-193]
The “CD28 scFv signal” value of the first is higher: 2.53 for the first, 2.52 for the second.

For MHWCPRSLWNECYF [Phage-182], the “CD28 scFv signal” value was 0.456.

target: T2, Anti-CD28 scFv (VH - linker 1 - VL) (biotinylated (site not stated)); assay: phage ELISA; biotinylated anti-CD28 scFv on neutravidin plate, clonal phage supernatant, anti-M13-HRP detection;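 also: before phage addition, wells were pretreated with soluble CD28 protein in blocking buffer, or with blocking buffer only as the comparison, then phage were added without washing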
T2 construct: Biotinylated scFv captured on neutravidin coated plates in the panning ELISA
T2 sequence (scFv, as listed by the source): as above

With MDWCPRYLWDYCFA (tested as crude phage supernatant) [Phage-280] the “CD28 scFv signal” value was 2.71.

target: T3, Anti-CD28 scFv (VH - linker 1 - VL) (biotinylated (site not stated)); assay: phage ELISA as above, wells pre-incubated with soluble CD28 (competitor);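 also: ELISA of crude clonal phage supernatants added to wells pre-treated with soluble CD28 in blocking buffer, bound phage read out with HRP-conjugated anti-M13 antibody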
T3 construct: Biotinylated scFv captured on neutravidin coated plates in the panning ELISA
T3 sequence (scFv, as listed by the source): as above

For MDWCPSDMWANCFF [Phage-389], the “CD28 scFv signal in presence of CD28” value was 0.316.

target: T4, Anti-CD28 scFv (VH - linker 1 - VL) (biotinylated (site not stated)); assay: as above
T4 construct: Captured as biotinylated scFv on neutravidin plates in the panning ELISA
T4 sequence (scFv, as listed by the source): as above

First: MNWCPIHMWNQCFA [Phage-407]
Second: MDWCPRSMWDSCFN [Phage-399]
The “CD28 scFv signal in presence of CD28” value of the first is lower: 0.133 for the first, 0.142 for the second.

Compared with MDWCPRDMWTSCFN [Phage-404], LHWCPITMWTYCYY [Phage-409] is higher in “CD28 scFv signal in presence of CD28” value: 0.179 for the first, 0.516 for the second.

First: MDWCPKDMWAECFN [Phage-395]
Second: LYWCPRDMWAYCYS [Phage-414]
The “CD28 scFv signal in presence of CD28” value of the first is higher: 0.457 for the first, 0.157 for the second.

First: TDWCPRDMWYLCFN [Phage-396]
Second: MFWCPKDMWAECFA [Phage-408]
The “CD28 scFv signal in presence of CD28” value of the first is higher: 0.301 for the first, 0.113 for the second.

Compared with MDWCPLDMWVLCFA [Phage-401], MSWCPWDMWNECFA [Phage-403] is lower in “CD28 scFv signal in presence of CD28” value: 0.169 for the first, 0.108 for the second.

Going from MHWCPTYMWSECFA [Phage-400] to MSWCPRFMWHECFN [Phage-411], the “CD28 scFv signal in presence of CD28” value rises from 0.161 to 0.246.

First: MDWCPRAMWDYCFY [Phage-397]
Second: MDWCPMSMWAFCFD [Phage-405]
The “CD28 scFv signal in presence of CD28” value of the first is higher: 0.339 for the first, 0.16 for the second.

Compared with MDWCPSDMWSNCFN [Phage-413], IDWCPRYMWHECFF [Phage-410] is higher in “CD28 scFv signal in presence of CD28” value: 0.121 for the first, 0.164 for the second.

First: QHWCPRDMWNDCYA [Phage-412]
Second: MDWCPRHMWHECFH [Phage-402]
The “CD28 scFv signal in presence of CD28” value of the first is lower: 0.149 for the first, 0.171 for the second.

Going from MDWCPRDMWFECFN [Phage-393] to MDWCPRNMWNECFF [Phage-398], the “CD28 scFv signal in presence of CD28” value falls from 0.778 to 0.43.

Going from MDWCPMYMWHKCFH [Phage-415] to MNWCPIDMWTECFN [Phage-406], the “CD28 scFv signal in presence of CD28” value rises from 0.168 to 0.175.

First: MDWCPFDMWADCFF [Phage-391]
Second: MDWCPRYMWSDCFF [Phage-394]
The “CD28 scFv signal in presence of CD28” value of the first is lower: 0.215 for the first, 0.377 for the second.

target: Anti-CD28 scFv (VH - linker 1 - VL) (biotinylated (site not given)); assay: phage binding ELISA on anti-CD28 scFv plate; wells pre-incubated with soluble CD28 as competitor;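 also: clonal phage supernatants tested, bound phage read out with an HRP-linked anti-M13 antibody, reference wells received blocking buffer lacking CD28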
Sequence (scFv, as listed by the source): as above

Compared with B1, B2 is higher in “CD28 scFv signal in presence of CD28” value: 0.725 for the first, 1.34 for the second.

target: T1, anti-CD28 scFv (VH - linker 1 - VL); assay: phage ELISA as above, wells pre-incubated with soluble CD28 as competitor
Method: (§1) Clonal phage were harvested as crude supernatants and screened via standard enzyme linked immunosorbent assays (ELISAs). […] Prior to the addition of clonal phage, wells were incubated with blocking buffer and CD28 soluble protein or blocking buffer alone. Without washing or aspirating, clonal phage supernatants were then added to the wells and incubated for a short time. Wells were then washed followed by detection of bound phage using a horse radish peroxidase conjugated anti-M13 antibody.

First: QDWCPTYLWHHCFN [Phage-186]
Second: VDWCPRYLWHVCYN [Phage-189]
The “CD28 scFv signal in presence of CD28” value of the first is higher: 0.122 for the first, 0.061 for the second.

First: MDWCPRYMWYQCFS [Phage-196]
Second: MDWCPSDMWHECYA [Phage-194]
The “CD28 scFv signal in presence of CD28” value of the first is higher: 0.357 for the first, 0.2 for the second.

First: MDWCPRDMWAECFF [Phage-190]
Second: IDWCPRDLWALCFN [Phage-183]
The “CD28 scFv signal in presence of CD28” value of the first is higher: 2.26 for the first, 0.129 for the second.

Compared with MYWCPRDLWDVCFN [Phage-181], MDWCPSYLWDQCFF [Phage-188] is lower in “CD28 scFv signal in presence of CD28” value: 0.102 for the first, 0.079 for the second.

Compared with MDWCPKHMWFMCFN [Phage-195], IGKLTLCLNADLVI [Phage-187] is lower in “CD28 scFv signal in presence of CD28” value: 0.372 for the first, 0.1 for the second.

Compared with MHWCPINLWNECFS [Phage-184], MDWCPRDMWYECFN [Phage-191] is higher in “CD28 scFv signal in presence of CD28” value: 0.098 for the first, 0.235 for the second.

First: DVWCPKYMWSLCFN [Phage-192]
Second: MDWCPMDMWVNCFN [Phage-193]
The “CD28 scFv signal in presence of CD28” value of the first is higher: 0.418 for the first, 0.277 for the second.

For MHWCPRSLWNECYF [Phage-182], the “CD28 scFv signal in presence of CD28” value was 0.115.

target: T4, Anti-CD28 scFv (VH - linker 1 - VL); assay: phage ELISA: biotinylated anti-CD28 scFv on neutravidin plate, clonal phage supernatant, anti-M13-HRP detection;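 also: competition format: before phage supernatant was added, wells were preincubated with soluble CD28 protein or with blocking buffer only, and phage were added without an intervening wash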
Method: as §1

First: MNWCPIHMWNQCFA [Phage-407]
Second: MDWCPRSMWDSCFN [Phage-399]
The “CD28 scFv signal” value of the first is lower: 1.37 for the first, 2.02 for the second.

Compared with MDWCPRDMWTSCFN [Phage-404], LHWCPITMWTYCYY [Phage-409] is lower in “CD28 scFv signal” value: 1.41 for the first, 1.21 for the second.

First: MDWCPKDMWAECFN [Phage-395]
Second: LYWCPRDMWAYCYS [Phage-414]
The “CD28 scFv signal” value of the first is higher: 2.11 for the first, 1.02 for the second.

Going from TDWCPRDMWYLCFN [Phage-396] to MFWCPKDMWAECFA [Phage-408], the “CD28 scFv signal” value falls from 2.11 to 1.26.

First: MDWCPLDMWVLCFA [Phage-401]
Second: MSWCPWDMWNECFA [Phage-403]
The “CD28 scFv signal” value of the first is higher: 1.84 for the first, 1.52 for the second.

Going from MHWCPTYMWSECFA [Phage-400] to MSWCPRFMWHECFN [Phage-411], the “CD28 scFv signal” value falls from 1.84 to 1.11.

Compared with MDWCPRAMWDYCFY [Phage-397], MDWCPMSMWAFCFD [Phage-405] is lower in “CD28 scFv signal” value: 2.11 for the first, 1.41 for the second.

First: MDWCPSDMWSNCFN [Phage-413]
Second: IDWCPRYMWHECFF [Phage-410]
The “CD28 scFv signal” value of the first is lower: 1.07 for the first, 1.18 for the second.

Going from QHWCPRDMWNDCYA [Phage-412] to MDWCPRHMWHECFH [Phage-402], the “CD28 scFv signal” value rises from 1.08 to 1.81.

First: MDWCPRDMWFECFN [Phage-393]
Second: MDWCPRNMWNECFF [Phage-398]
The “CD28 scFv signal” value of the first is higher: 2.42 for the first, 2.1 for the second.

Compared with MDWCPMYMWHKCFH [Phage-415], MNWCPIDMWTECFN [Phage-406] is higher in “CD28 scFv signal” value: 0.987 for the first, 1.4 for the second.

First: MDWCPFDMWADCFF [Phage-391]
Second: MDWCPRYMWSDCFF [Phage-394]
The “CD28 scFv signal” value of the first is higher: 2.53 for the first, 2.28 for the second.

target: T2, Anti-CD28 scFv (VH - linker 1 - VL); assay: phage ELISA; biotinylated anti-CD28 scFv on neutravidin plate, wells pre-incubated with soluble CD28 (competitor), anti-M13-HRP detection;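 also: bound clonal phage detected by peroxidase-labelled anti-M13 antibody, compared against wells given blocking buffer alone without soluble CD28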
Method: as §1

For MDWCPRYLWDYCFA (tested as crude phage supernatant) [Phage-280], the “CD28 scFv signal in presence of CD28” value was 0.382.
